{
  "source": "paper PMC11696143",
  "about": "“A higher order PUF complex is central to regulation of C. elegans germline stem cells” (Nature Communications, 2024)",
  "key": {"[1]": {"biological_target": "T1, FBF-2 RBD+CT;LST-1 19-98 (Caenorhabditis elegans;Caenorhabditis …, UniProt Q09312;P91820 164-632;19-98, |)", "T1 sequence 1": "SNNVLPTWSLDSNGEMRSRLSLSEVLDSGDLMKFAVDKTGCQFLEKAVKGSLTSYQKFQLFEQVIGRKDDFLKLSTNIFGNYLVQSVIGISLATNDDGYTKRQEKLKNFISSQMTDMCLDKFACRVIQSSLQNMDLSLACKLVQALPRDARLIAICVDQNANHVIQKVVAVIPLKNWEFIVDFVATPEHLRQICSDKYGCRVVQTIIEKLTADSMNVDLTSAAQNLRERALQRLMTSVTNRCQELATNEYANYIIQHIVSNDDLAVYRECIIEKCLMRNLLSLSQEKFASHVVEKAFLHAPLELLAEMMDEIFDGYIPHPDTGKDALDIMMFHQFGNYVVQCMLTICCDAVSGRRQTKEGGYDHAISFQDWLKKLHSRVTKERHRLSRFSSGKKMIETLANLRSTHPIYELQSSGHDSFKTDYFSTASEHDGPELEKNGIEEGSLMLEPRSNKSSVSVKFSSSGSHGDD", "T1 sequence 2": "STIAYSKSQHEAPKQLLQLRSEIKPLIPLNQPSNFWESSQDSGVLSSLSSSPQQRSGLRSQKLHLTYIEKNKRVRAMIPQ", "assay": "EMSA; 10 uM LST-1 19-98; apparent Kd; EMSA: 5 nM RNA, 10 mM HEPES pH 7.4, 75 mM NaCl, 0.01% Tween 20, 0.1 mg/ml BSA, 0.1 mg/ml yeast tRNA, 2 mM DTT, 4 C overnight", "settings": "protein: recombinant;recombinant; tags: His6-SUMO, removed by Ulp1;His6-SUMO removed by Ulp1; GST removed by TEV when coexpressed; chain copies: 2;1; label: 3'-Cy5"}, "[2]": {"biological_target": "T2, FBF-2 RBD;LST-1 19-98 (Caenorhabditis elegans;Caenorhabditis …, UniProt Q09312;P91820 164-575;19-98, |)", "T2 sequence 1": "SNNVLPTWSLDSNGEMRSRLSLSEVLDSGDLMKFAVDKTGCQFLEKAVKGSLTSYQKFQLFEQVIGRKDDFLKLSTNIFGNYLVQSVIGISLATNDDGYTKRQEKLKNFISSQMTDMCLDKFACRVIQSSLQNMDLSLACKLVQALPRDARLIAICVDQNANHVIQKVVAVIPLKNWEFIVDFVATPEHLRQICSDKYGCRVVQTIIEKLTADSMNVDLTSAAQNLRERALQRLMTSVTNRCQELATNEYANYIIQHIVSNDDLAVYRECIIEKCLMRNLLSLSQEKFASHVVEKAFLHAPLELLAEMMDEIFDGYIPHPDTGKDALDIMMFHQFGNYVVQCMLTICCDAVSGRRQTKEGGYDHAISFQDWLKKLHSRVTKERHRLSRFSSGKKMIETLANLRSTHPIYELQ", "T2 sequence 2": "T1 sequence 2", "assay": "EMSA; 10 uM LST-1 19-98; apparent Kd; EMSA: 5 nM RNA, 10 mM HEPES pH 7.4, 75 mM NaCl, 0.01% Tween 20, 0.1 mg/ml BSA, 0.1 mg/ml yeast tRNA, 2 mM DTT, 4 C overnight", "settings": "protein: recombinant;recombinant; tags: His-SUMO, removed by TEV;His6-SUMO removed by Ulp1; GST removed by TEV when coexpressed; chain copies: 2;1; label: 3'-Cy5"}, "[3]": {"biological_target": "T3, LST-1 19-98 (Caenorhabditis elegans, UniProt P91820 19-98)", "T3 sequence": "T1 sequence 2", "assay": "EMSA; 10 uM LST-1 19-98; nonspecific intermediate band, seen with FBF-2 present; EMSA: 5 nM RNA, 10 mM HEPES pH 7.4, 75 mM NaCl, 0.01% Tween 20, 0.1 mg/ml BSA, 0.1 mg/ml yeast tRNA, 2 mM DTT, 4 C overnight", "settings": "protein: recombinant; tags: His6-SUMO removed by Ulp1; GST removed by TEV when coexpressed; label: 3'-Cy5"}, "[4]": {"biological_target": "T4, FBF-2 RBD+CT L610A (Caenorhabditis elegans, UniProt Q09312 164-632, L610A)", "T4 sequence": "T1 sequence 1 with L447A", "assay": "EMSA; apparent Kd, Hill fit; EMSA: 5 nM RNA, 10 mM HEPES pH 7.4, 75 mM NaCl, 0.01% Tween 20, 0.1 mg/ml BSA, 0.1 mg/ml yeast tRNA, 2 mM DTT, 4 C overnight", "settings": "protein: recombinant; label: 3'-Cy5"}, "[5]": {"biological_target": "T5, FBF-2 RBD (Caenorhabditis elegans, UniProt Q09312 164-575)", "T5 sequence": "T2 sequence 1", "assay": "EMSA; apparent Kd, Hill fit; EMSA: 5 nM RNA, 10 mM HEPES pH 7.4, 75 mM NaCl, 0.01% Tween 20, 0.1 mg/ml BSA, 0.1 mg/ml yeast tRNA, 2 mM DTT, 4 C overnight", "settings": "protein: recombinant; tags: His-SUMO, removed by TEV; label: 3'-Cy5"}, "[6]": {"biological_target": "T6, FBF-2 RBD+CT (Caenorhabditis elegans, UniProt Q09312 164-632)", "T6 sequence": "T1 sequence 1", "assay": "EMSA; apparent Kd, Hill fit; EMSA: 5 nM RNA, 10 mM HEPES pH 7.4, 75 mM NaCl, 0.01% Tween 20, 0.1 mg/ml BSA, 0.1 mg/ml yeast tRNA, 2 mM DTT, 4 C overnight", "settings": "protein: recombinant; tags: His6-SUMO, removed by Ulp1; label: 3'-Cy5"}},
  "note": "Numbering of substitutions follows the chain as printed.",
  "data": [
    {"binder": "AUCAUGUGCCAUACAUCAUGUUGCCAUUU (ssRNA)", "note": "[gld-1 FBEa-FBEa* (EMSA)]", "values": [
      {"measurement": "Kd", "setting": "[1]", "value": "109 ± 2", "unit": "nM"},
      {"measurement": "Kd", "setting": "[2]", "value": "107 ± 3", "unit": "nM"},
      {"measurement": "binding result", "setting": "[3]", "value": "binds"},
      {"measurement": "Kd", "setting": "[4]", "value": "80 ± 11", "unit": "nM"},
      {"measurement": "Kd", "setting": "[5]", "value": "131 ± 10", "unit": "nM"},
      {"measurement": "Kd", "setting": "[6]", "value": "435 ± 25", "unit": "nM"}
    ]}
  ]
}
